Experimental findings from article PMC5535997 (International Journal of Molecular Sciences, 2017) are described below.

The experiment addresses influenza A virus nucleoprotein (NP), strain A/WSN/33, from infected MDCK cells (Influenza A virus A/WSN/1933 (H1N1), [35S]Met/Cys radiolabel). The experiment is described as follows: pull-down. The note with it: partners not purified.

influenza A virus nucleoprotein (NP), strain A/WSN/33, from infected MDCK cells (Influenza A virus A/WSN/1933 (H1N1), [35S]Met/Cys radiolabel), sequence (P15682 whole entry): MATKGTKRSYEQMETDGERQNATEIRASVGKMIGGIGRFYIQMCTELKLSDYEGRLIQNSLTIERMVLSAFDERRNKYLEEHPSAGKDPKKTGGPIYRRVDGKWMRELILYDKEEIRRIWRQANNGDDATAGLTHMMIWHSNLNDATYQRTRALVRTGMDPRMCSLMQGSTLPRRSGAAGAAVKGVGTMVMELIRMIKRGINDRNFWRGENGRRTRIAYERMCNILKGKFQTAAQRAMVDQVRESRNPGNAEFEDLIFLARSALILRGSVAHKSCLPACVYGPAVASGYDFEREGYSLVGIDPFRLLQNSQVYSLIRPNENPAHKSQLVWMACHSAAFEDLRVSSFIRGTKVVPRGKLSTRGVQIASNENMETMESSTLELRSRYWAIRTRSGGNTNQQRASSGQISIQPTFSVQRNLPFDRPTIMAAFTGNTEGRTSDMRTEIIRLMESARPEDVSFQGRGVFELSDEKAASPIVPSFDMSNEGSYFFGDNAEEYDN

B1: C8 displayed on S. aureus RN4220 (VHH)
VHH: QVHSWSLGGGLVQSGGSLTLSCAASGFTFTNAYMSWVRQGPGKEPEWVSGINARGVGTRYADFVKGRFTISRDNAKTILYLQMNSLKPEDTALYYCASDFGPSGGRWDPPRRRGQGTWVTVSS
On to B1, for which the binding result is “binds”.

B2: VHH54.1 displayed on S. aureus RN4220 (VHH)
VHH: QVQLVESGGGLVQAGASLRLSCATSGRTLSGYAMGWFRQAPGKERELTAAISWSGISTYYTDSVKGRFTISRDNAKNTVYLQMNSLNSEDTGVYYCVADVGWPLRADRGSWGQGTQVTISS
notes: also called anti-NP-VHH4
Consider B2, for which the binding result was “binds”.

B3: VHH62 displayed on S. aureus RN4220 (VHH)
VHH: QVQLVESGGGLVQPGGSLRLSCAASGFTLDGYAIGWFRQAPGKEREGVSCISSSGKSTNYADSVKGRFTISRDNQQNTVYLQMNSLKPEDTAVYYCAATVGLFCVGGTYGMDYWGKGTLVKMSS
notes: also called anti-NP-VHH3
In the case of B3, the binding result is given as “binds”.

B4: D4 displayed on S. aureus RN4220 (VHH)
VHH: QLQLVETGGGLVQSGGSLRLSCAASGFTLGSYAIGWYRQAPGKERERVSCISSSGISTNYADPVKGRFTISRDNAKNTVYLQMDSLKPEDTAVYYCAADSFFCLGPNMDYWGKGTLVIVSS
notes: also called anti-NP-VHH5
Turning to B4, the binding result is given as “binds”.

B5: VHH54 displayed on S. aureus RN4220 (VHH)
VHH: QVQLQESGGGLVQAGGSLRLSCAASGRTLSSYAMGWFRQAPGKERELVSAISWSGLSTYYEDSVKGRFTISRDNAKNTMYLQMNSLKPEDTAIYYCAADIGWPLRADSGSWGQGTQVTVSS
notes: also called anti-NP-VHH2
With B5, the binding result is “binds”.

B6: VHH52.1 displayed on S. aureus RN4220 (VHH)
VHH: QLQLVESGGGLVQAGGSLRLSCAASGSTFSNYAMGWFRQAPGKEREFVASIRWIGGSTRYADSVKGRFTTSRDNAKNALYLQMNSLKTEDTAVYYCAASLGYSASYASGYDYWGQGTQVTVSS
notes: also called anti-NP-VHH6
Take B6: the binding result was “binds”.

B7: VHH52 displayed on S. aureus RN4220 (VHH)
VHH: QVQLQESGGGLVQAGGSLRLTCALSERTSTSYAQGWFRQPPGKEREFVASLRTHDGNTHYTDSVKGRFTISRDNAENTLYLQMNSLKTEDTAVYYCAASLGYSGAYASGYDYWGQGTQVTVSS
notes: also called anti-NP-VHH1
For B7, the binding result is given as “binds”.
